Results: US20120014957A1 (AbbVie / Abbott, published 2012)

Assays:
IGFR on cells = molecular target: T1, IGFR on cells (UniProt P08069 31-1367, limits assumed); assay: flow cytometry on cells, DVD-Ig at 2 ug/mL
T1 construct: whole, on cells; also called IGF1R
Experimental: (§1) Stable cell lines overexpressing a cell-surface antigen of interest or human tumor cell lines were harvested from tissue culture flasks and resuspended in phosphate buffered saline (PBS) containing 5% fetal bovine serum (PBS/FBS). Prior to staining, human tumor cells were incubated on ice with (100 μl) human IgG at 5 μg/ml in PBS/FCS. 1−5×10⁵ cells were incubated with antibody or DVD-Ig (2 μg/mL) in PBS/FBS for 30-60 minutes on ice. Cells were washed twice and 100 μl of F(ab′)2 goat anti human IgG, Fcγ-phycoerythrin (1:200 dilution in PBS) (Jackson ImmunoResearch, West Grove, Pa., Cat. #109-116-170) was added. After a 30 minute incubation on ice, cells were washed twice and resuspended in PBS/FBS. Fluorescence was measured using a Becton Dickinson FACSCalibur (Becton Dickinson, San Jose, Calif.).
(§2) The geometric mean is the n root of the multiplication product of n fluorescent signals (a1×a2×a3 . . . an). With log-transformed data the geometric mean is used to normalize the weighting of the data distribution.

DLL4 on cells = molecular target: T2, DLL4 on cells (UniProt Q9NR61 27-685, limits assumed); assay: flow cytometry on cells, antibody at 2 ug/mL
T2 construct: whole, on cells
Experimental: as §1, §2

Recombinant Human DLL4 = molecular target: T3, Recombinant Human DLL4 (human, UniProt Q9NR61 27-524); assay: SPR (Biacore)
T3 construct: Bought reagent of the Biacore analyses
Experimental: The BIACORE assay (Biacore, Inc, Piscataway, N.J.) determines the affinity of antibodies or DVD-Ig with kinetic measurements of on-rate and off-rate constants. Binding of antibodies or DVD-Ig to a target antigen (for example, a purified recombinant target antigen) was determined by surface plasmon resonance-based measurements with a Biacore® 1000 or 3000 instrument (Biacore® AB, Uppsala, Sweden) using running HBS-EP (10 mM HEPES [pH 7.4], 150 mM NaCl, 3 mM EDTA, and 0.005% surfactant P20) at 25° C. All chemicals were obtained from Biacore® AB (Uppsala, Sweden) or otherwise from a different source as described in the text. For example, approximately 5000 RU of goat anti-mouse IgG, (Fcγ), fragment specific polyclonal antibody (Pierce Biotechnology Inc, Rockford, Ill.) diluted in 10 mM sodium acetate (pH 4.5) was directly immobilized across a CM5 research grade biosensor chip using a standard amine coupling kit according to manufacturer's instructions and procedures at 25 μg/ml. Unreacted moieties on the biosensor surface were blocked with ethanolamine. Modified carboxymethyl dextran surface in flowcell 2 and 4 was used as a reaction surface. Unmodified carboxymethyl dextran without goat anti-mouse IgG in flow cell 1 and 3 was used as the reference surface. For kinetic analysis, rate equations derived from the 1:1 Langmuir binding model were fitted simultaneously to association and dissociation phases of all eight injections (using global fit analysis) with the use of Biaevaluation 4.0.1 software. Purified antibodies or DVD-Ig were diluted in HEPES-buffered saline for capture across goat anti-mouse IgG specific reaction surfaces. Antibodies or DVD-Ig to be captured as a ligand (25 μg/ml) were injected over reaction matrices at a flow rate of 5 μl/min. The association and dissociation rate constants, kₒₙ (M⁻¹s⁻¹) and koff (s⁻¹) were determined under a continuous flow rate of 25 μl/min. Rate constants were derived by making kinetic binding measurements at different antigen concentrations ranging from 10-200 nM. The equilibrium dissociation constant (M) of the reaction between antibodies or DVD-Igs and the target antigen was then calculated from the kinetic rate constants by the following formula: KD=koff/kₒₙ. Binding was recorded as a function of time and kinetic rate constants were calculated.

NRP1 on cells [1] = molecular target: T4, NRP1 on cells (UniProt O14786 22-923, limits assumed); assay: flow cytometry on cells, antibody at 2 ug/mL
T4 construct: whole, on cells
Experimental: as §1, §2

Recombinant Human β-NGF = Recombinant Human β-NGF (human, UniProt P01138 122-241); assay: cell-based or functional assay
NRP1 on cells [2] = molecular target: T4, NRP1 on cells; assay: flow cytometry on cells, DVD-Ig at 2 ug/mL
Experimental: as §1, §2

CD-20 on cells [3] = molecular target: T5, CD-20 on cells (UniProt P11836 1-297, limits assumed); assay: flow cytometry on cells, DVD-Ig at 2 ug/mL
T5 construct: whole, on cells
T5 sequence (looked up): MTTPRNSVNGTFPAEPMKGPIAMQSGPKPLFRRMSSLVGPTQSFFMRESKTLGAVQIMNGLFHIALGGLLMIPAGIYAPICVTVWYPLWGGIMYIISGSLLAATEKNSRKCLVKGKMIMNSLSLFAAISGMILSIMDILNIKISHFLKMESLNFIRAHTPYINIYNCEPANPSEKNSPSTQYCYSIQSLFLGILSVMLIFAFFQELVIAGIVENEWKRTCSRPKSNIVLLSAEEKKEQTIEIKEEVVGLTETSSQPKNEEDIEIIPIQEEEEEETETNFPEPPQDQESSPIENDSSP
Experimental: as §1, §2

CD-20 on cells [4] = molecular target: T5, CD-20 on cells; assay: flow cytometry on cells, antibody at 2 ug/mL
Experimental: as §1, §2

B1: DVD1324 (bispecific antibody, human IgG1, kappa)
heavy: not shown
light: DIQMTQFPSSLSASVGDRVTITCRASQGIRNDLGWYQQKPGKAPKRLIYAASRLHRGVPSRFSGSGSGTEFTLTISSLQPEDFATYYCLQHNSYPCSFGQGTKLEIKRTVAAPDIQMTQSPSSLSASVGDRVTITCRASEDIYNALAWYQQKPGKAPKLLIYNTDTLHTGVPSRFSGSGSGTDYTLTISSLQPEDFATYFCQHYFHYPRTFGQGTKVEIKRTVAAPSVFIFPPSDEQLKSGTASVVCLLNNFYPREAKVQWKVDNALQSGNSQESVTEQDSKDSTYSLSSTLTLSKADYEKHKVYACEVTHQGLSSPVTKSFNRGEC
notes: DVD-Ig; also called DVD1324H; DVD1324L
In the case of B1, the “FACS Geometric Mean N-terminal” value (IGFR on cells) is reported as 825.

B2: AB015 (antibody, V domains shown)
VH: EVQLVESGGGLVQPGGSLRLSCAASGFTFTDNWISWVRQAPGKGLEWVGYISPNSGFTYYADSVKGRFTISADTSKNTAYLQMNSLRAEDTAVYYCARDNFGGYFDYWGQGTLVTVSS
VL: DIQMTQSPSSLSASVGDRVTITCRASQDVSTAVAWYQQKPGKAPKLLIYSASFLYSGVPSRFSGSGSGTDFTLTISSLQPEDFATTYYCQQSYTGTVTFGQGTKVEIKR
notes: Parent antibody; also called DLL4; AB015VH
In the case of B2, the “FACS Geometric Mean” value (DLL4 on cells) is reported as 308, the Kd (Recombinant Human DLL4) is reported as 0.414 nM and the koff (Recombinant Human DLL4) is reported as 0.000166 s⁻¹. It also gave a kon (Recombinant Human DLL4) of 400000 M⁻¹ s⁻¹.

B3: AB016 (antibody, V domains shown)
VH: EVQLVESGGGLVQPGGSLRLSCAASGFSFSSEPISWVRQAPGKGLEWVSSITGKNGYTYYADSVKGRFTISADTSKNTAYLQMNSLRAEDTAVYYCARWGKKVYGMDVWGQGTLVTVSS
VL: DIQMTQSPSSLSASVGDRVTITCRASQSISSYLAWYQQKPGKAPKLLIYGASSRASGVPSRFSGSGSGTDFTLTISSLQPEDFATYYCQQYMSVPITFGQGTKVEIKR
notes: Parent antibody; also called NRP1
With B3 the “FACS Geometric Mean” value (NRP1 on cells [1]) was 338.

B4: DVD1352 (bispecific antibody, human IgG1, kappa)
heavy: not shown
light: DIQMTQSPSSLSASVGDRVTITCRASQSISSYLAWYQQKPGKAPKLLIYGASSRASGVPSRFSGSGSGTDFTLTISSLQPEDFATYYCQQYMSVPITFGQGTKVEIKRTVAAPDIQMTQSPSSLSASVGDRVTITCRASEDIYNALAWYQQKPGKAPKLLIYNTDTLHTGVPSRFSGSGSGTDYTLTISSLQPEDFATYFCQHYFHYPRTFGQGTKVEIKRTVAAPSVFIFPPSDEQLKSGTASVVCLLNNFYPREAKVQWKVDNALQSGNSQESVTEQDSKDSTYSLSSTLTLSKADYEKHKVYACEVTHQGLSSPVTKSFNRGEC
notes: DVD-Ig; also called DVD1352H; DVD1352L
B4 was tested, and the “C-Terminal VD NGF Inhibition Assay EC50” value (Recombinant Human β-NGF) was 0.226 nM and the “FACS Geometric Mean N-terminal” value (NRP1 on cells [2]) was 42.

B5: DVD1336 (bispecific antibody, human IgG1, kappa)
heavy: not shown
light: QIVLSQSPAILSPSPGEKVTMTCRASSSVSYIHWFQQKPGSSPKPWIYATSNLASGVPVRFSGSGSGTSYSLTISRVEAEDAATYYCQQWTSNPPTFGGGTKLEIKRTVAAPDIQMTQSPSSLSASVGDRVTITCRASEDIYNALAWYQQKPGKAPKLLIYNTDTLHTGVPSRFSGSGSGTDYTLTISSLQPEDFATYFCQHYFHYPRTFGQGTKVEIKRTVAAPSVFIFPPSDEQLKSGTASVVCLLNNFYPREAKVQWKVDNALQSGNSQESVTEQDSKDSTYSLSSTLTLSKADYEKHKVYACEVTHQGLSSPVTKSFNRGEC
notes: DVD-Ig; also called DVD1336H; DVD1336L
In the case of B5, the “FACS Geometric Mean N-terminal” value (CD-20 on cells [3]) is reported as 754.

B6: AB001 (antibody, V domains shown)
VH: QVQLQQPGAELVKPGASVKMSCKASGYTFTSYNMHWVKQTPGRGLEWIGAIYPGNGDTSYNQKFKGKATLTADKSSSTAYMQLSSLTSEDSAVYYCARSTYYGGDWYFNVWGAGTTVTVSA
VL: QIVLSQSPAILSPSPGEKVTMTCRASSSVSYIHWFQQKPGSSPKPWIYATSNLASGVPVRFSGSGSGTSYSLTISRVEAEDAATYYCQQWTSNPPTFGGGTKLEIKR
notes: Parent antibody; also called CD-20; AB001VH
B6 was tested, and the “FACS Geometric Mean” value (CD-20 on cells [4]) was 1400.
